Measured values published in patent US20230331827A1, “POTASSIUM CHANNEL INHIBITORS” (priority 2017, published 2023).

B1: KB_A12_HsTx1 R14A (antibody, V domains shown)
VH: EVQLVESGGGLVRPGGSLRLSCAASGFTFSSYAMSWVRQAPGKGLEWVSAISGSGGSTYYADSVKGRFTISRDNTKNSLYLQMTSLRADDTAFYYCVKDFGPGYGTGWFDYWGPGTLVTVSS
VL: NWYQQLPGKAPKLLIYAAGRASCRTPKDCADPCAKETGCPYGKCMNRKCKCNRCANSGVSDRFSAAKSGTSASLAINGLRSEDEADYYCAAWDDSLNGYVFGTGTKLTVLG
B2: KB_C10 Fab (Fab, V domains shown)
VH: EVQLVESGGGLVRPGGSLRLSCAASGFTFSSYAMSWVRQAPGKGLEWVSAISGSGGSTYYADSVKGRFTISRDNTKNSLYLQMTSLRADDTAFYYCVKDFGPGYGTGWFDYWGPGTLVTVSS
VL: AVNWYQQLPGKAPKLLIYAAGPCPRILMRCKQDSDCLAGCVCGPNGFCGADSGVSDRFSGSKSGTSASLAITGLQAEDEGDYYCAAWDDSLNGLVFGGGTKVTVLG
B3: KB_C07 Fab (Fab, V domains shown)
VH: EVQLVESGGGLVRPGGSLRLSCAASGFTFSSYAMSWVRQAPGKGLEWVSAISGSGGSTYYADSVKGRFTISRDNTKNSLYLQMTSLRADDTAFYYCVKDFGPGYGTGWFDYWGPGTLVTVSS
VL: AVNWYQQLPGKAPKLLIYAAVGCPRILMRCKQDSDCLAGCVCGPNGFCGSASGVSDRFSGSKSGTSASLAISGLRSEDEADYYCASWDDSLRGYVFGTGTKVTVLG
B4: KB_A12_B-gal_E04 (scFv, V domains shown)
VH: EVQLVESGGGLVRPGGSLRLSCAASGFTFSSYAMSWVRQAPGKGLEWVSAISGSGGSTYYADSVKGRFTISRDNTKNSLYLQMTSLRADDTAFYYCVKDFGPGYGTGWFDYWGPGTLVTVSS
VL: AVNWYQQLPGKAPKLLIYAAGRCLATTSIRRPCKQDSDCLAGCVCGPNGFCGANSGVSDRFSAAKSGTSASLAINGLRSEDEADYYCAAWDDSLNGYVFGTGTKLTVLG
B5: KB_A12_B-gal_F03 (scFv, V domains shown)
VH: EVQLVESGGGLVRPGGSLRLSCAASGFTFSSYAMSWVRQAPGKGLEWVSAISGSGGSTYYADSVKGRFTISRDNTKNSLYLQMTSLRADDTAFYYCVKDFGPGYGTGWFDYWGPGTLVTVSS
VL: AVNWYQQLPGKAPKLLIYAAGRCLATTSIRRHCKQDSDCLAGCVCGPNGFCGANSGVSDRFSAAKSGTSASLAINGLRSEDEADYYCAAWDDSLNGYVFGTGTKLTVLG
B6: KB_A12_B-gal_G05 (scFv, V domains shown)
VH: EVQLVESGGGLVRPGGSLRLSCAASGFTFSSYAMSWVRQAPGKGLEWVSAISGSGGSTYYADSVKGRFTISRDNTKNSLYLQMTSLRADDTAFYYCVKDFGPGYGTGWFDYWGPGTLVTVSS
VL: AVNWYQQLPGKAPKLLIYAAGRCLDTVNLRRRCKQDSDCLAGCVCGPNGFCGANSGVSDRFSAAKSGTSASLAINGLRSEDEADYYCAAWDDSLNGYVFGTGTKLTVLG
B7: KB_A12_B-gal_F09 (scFv, V domains shown)
VH: EVQLVESGGGLVRPGGSLRLSCAASGFTFSSYAMSWVRQAPGKGLEWVSAISGSGGSTYYADSVKGRFTISRDNTKNSLYLQMTSLRADDTAFYYCVKDFGPGYGTGWFDYWGPGTLVTVSS
VL: AVNWYQQLPGKAPKLLIYAAGRCIATSHIRRHCKQDSDCLAGCVCGPNGFCGANSGVSDRFSAAKSGTSASLAINGLRSEDEADYYCAAWDDSLNGYVFGTGTKLTVLG
B8: KB_A12_B-gal_F07 (scFv, V domains shown)
VH: EVQLVESGGGLVRPGGSLRLSCAASGFTFSSYAMSWVRQAPGKGLEWVSAISGSGGSTYYADSVKGRFTISRDNTKNSLYLQMTSLRADDTAFYYCVKDFGPGYGTGWFDYWGPGTLVTVSS
VL: AVNWYQQLPGKAPKLLIYAAGRCRTTANVRRHCKQDSDCLAGCVCGPNGFCGANSGVSDRFSAAKSGTSASLAINGLRSEDEADYYCAAWDDSLNGYVFGTGTKLTVLG
B9: KB_B01 Fab (Fab, V domains shown)
VH: EVQLVESGGGLVRPGGSLRLSCAASGFTFSSYAMSWVRQAPGKGLEWVSAISGSGGSTYYADSVKGRFTISRDNTKNSLYLQMTSLRADDTAFYYCVKDFGPGYGTGWFDYWGPGTLVTVSS
VL: AVNWYQQLPGKAPKLLIYAAAGCPRILMRCKQDSDCLAGCVCGPNGFCGTRSGVSDRFSGSKSGTSASLAISGLRSEDEADYYCAAWDDSLRAYVFGTGTKLTVLG
B10: KB_C09 Fab (Fab, V domains shown)
VH: EVQLVESGGGLVRPGGSLRLSCAASGFTFSSYAMSWVRQAPGKGLEWVSAISGSGGSTYYADSVKGRFTISRDNTKNSLYLQMTSLRADDTAFYYCVKDFGPGYGTGWFDYWGPGTLVTVSS
VL: AVNWYQQLPGKAPKLLIYAAGRCPRILMRCKQDSDCLAGCVCGPNGFCGGGSGVPDRFSGSIDSSSNSASLTISGLRAEDEADYYCQSYDSSNHWVFGGGTKLTVLG
B11: KB_A11 Fab (Fab, V domains shown)
VH: EVQLVESGGGLVRPGGSLRLSCAASGFTFSSYAMSWVRQAPGKGLEWVSAISGSGGSTYYADSVKGRFTISRDNTKNSLYLQMTSLRADDTAFYYCVKDFGPGYGTGWFDYWGPGTLVTVSS
VL: YLNWYQQKPGKAPKLLIYAAEICPRILMRCKQDSDCLAGCVCGPNGFCGPSSGIPARFSGSGYGTDFTLTINNIESEDAAYYFCLQHDNFPYTFGQGTKVEIKR
B12: KB_C08 Fab (Fab, V domains shown)
VH: EVQLVESGGGLVRPGGSLRLSCAASGFTFSSYAMSWVRQAPGKGLEWVSAISGSGGSTYYADSVKGRFTISRDNTKNSLYLQMTSLRADDTAFYYCVKDFGPGYGTGWFDYWGPGTLVTVSS
VL: AVNWYQQLPGKAPKLLIYAAAVCPRILMRCKQDSDCLAGCVCGPNGFCGTRSGIPERFSGSKSGTSAFLAISGLRSEDEADYYCAAWDDSLSGVVFGGGTKLTVLG
B13: KB_A12_B-gal_H02 (scFv, V domains shown)
VH: EVQLVESGGGLVRPGGSLRLSCAASGFTFSSYAMSWVRQAPGKGLEWVSAISGSGGSTYYADSVKGRFTISRDNTKNSLYLQMTSLRADDTAFYYCVKDFGPGYGTGWFDYWGPGTLVTVSS
VL: AVNWYQQLPGKAPKLLIYAAGRCEQTSVIRRHCKQDSDCLAGCVCGPNGFCGANSGVSDRFSAAKSGTSASLAINGLRSEDEADYYCAAWDDSLNGYVFGTGTKLTVLG
B14: KB_B02 Fab (Fab, V domains shown)
VH: EVQLVESGGGLVRPGGSLRLSCAASGFTFSSYAMSWVRQAPGKGLEWVSAISGSGGSTYYADSVKGRFTISRDNTKNSLYLQMTSLRADDTAFYYCVKDFGPGYGTGWFDYWGPGTLVTVSS
VL: AVNWYQQLPGKAPKLLIYAAVGCPRILMRCKQDSDCLAGCVCGPNGFCGTGSGIPERFSGSKSGNTASLTISGLQAEDEGDYYCAAWDDSLSGPVFGGGTKLTVLG
B15: KB_A12_B-gal_H03 (scFv, V domains shown)
VH: EVQLVESGGGLVRPGGSLRLSCAASGFTFSSYAMSWVRQAPGKGLEWVSAISGSGGSTYYADSVKGRFTISRDNTKNSLYLQMTSLRADDTAFYYCVKDFGPGYGTGWFDYWGPGTLVTVSS
VL: AVNWYQQLPGKAPKLLIYAAGRCNQTMSIRRPCKQDSDCLAGCVCGPNGFCGANSGVSDRFSAAKSGTSASLAINGLRSEDEADYYCAAWDDSLNGYVFGTGTKLTVLG
B16: KB_A12_B-gal_F02 (scFv, V domains shown)
VH: EVQLVESGGGLVRPGGSLRLSCAASGFTFSSYAMSWVRQAPGKGLEWVSAISGSGGSTYYADSVKGRFTISRDNTKNSLYLQMTSLRADDTAFYYCVKDFGPGYGTGWFDYWGPGTLVTVSS
VL: AVNWYQQLPGKAPKLLIYAAGRCRTTSTIRRRCKQDSDCLAGCVCGPNGFCGANSGVSDRFSAAKSGTSASLAINGLRSEDEADYYCAAWDDSLNGYVFGTGTKLTVLG
B17: KB_A12_B-gal_H07 (scFv, V domains shown)
VH: EVQLVESGGGLVRPGGSLRLSCAASGFTFSSYAMSWVRQAPGKGLEWVSAISGSGGSTYYADSVKGRFTISRDNTKNSLYLQMTSLRADDTAFYYCVKDFGPGYGTGWFDYWGPGTLVTVSS
VL: AVNWYQQLPGKAPKLLIYAAGRCTQTALIRRRCKQDSDCLAGCVCGPNGFCGANSGVSDRFSAAKSGTSASLAINGLRSEDEADYYCAAWDDSLNGYVFGTGTKLTVLG
B18: KB_A12_B-gal_E05 (scFv, V domains shown)
VH: EVQLVESGGGLVRPGGSLRLSCAASGFTFSSYAMSWVRQAPGKGLEWVSAISGSGGSTYYADSVKGRFTISRDNTKNSLYLQMTSLRADDTAFYYCVKDFGPGYGTGWFDYWGPGTLVTVSS
VL: AVNWYQQLPGKAPKLLIYAAGRCRETSSLRRPCKQDSDCLAGCVCGPNGFCGANSGVSDRFSAAKSGTSASLAINGLRSEDEADYYCAAWDDSLNGYVFGTGTKLTVLG
B19: KB_A12_B-gal_F11 (scFv, V domains shown)
VH: EVQLVESGGGLVRPGGSLRLSCAASGFTFSSYAMSWVRQAPGKGLEWVSAISGSGGSTYYADSVKGRFTISRDNTKNSLYLQMTSLRADDTAFYYCVKDFGPGYGTGWFDYWGPGTLVTVSS
VL: AVNWYQQLPGKAPKLLIYAAGRCHETAQIRRRCKQDSDCLAGCVCGPNGFCGANSGVSDRFSAAKSGTSASLAINGLRSEDEADYYCAAWDDSLNGYVFGTGTKLTVLG
B20: KB_A12 Fab (Fab, V domains shown)
VH: EVQLVESGGGLVRPGGSLRLSCAASGFTFSSYAMSWVRQAPGKGLEWVSAISGSGGSTYYADSVKGRFTISRDNTKNSLYLQMTSLRADDTAFYYCVDFGPGYGTGWFDYWGPGTLVTVSS
VL: AVNWYQQLPGKAPKLLIYAAGRCPRILMRCKQDSDCLAGCVCGPNGFCGANSGVSDRFSAAKSGTSASLAINGLRSEDEADYYCAAWDDSLNGYVFGTGTKLTVLG

Experiments:
human Kv1.1 (human) = human Kv1.1 (human) (UniProt Q09470); test: cell-based or functional assay
human Kv1.3 (human) = human Kv1.3 (human) (UniProt P22001); test: cell-based or functional assay
trypsin [1] = test: TRF, 0.6 ug/mL Fab on trypsin
trypsin [2] = test: TRF, 10 ug/mL Fab on trypsin
trypsin [3] = test: TRF, 2.4 ug/mL Fab on trypsin
β-galactosidase = test: phage TRF on β-galactosidase
Chain of β-galactosidase (P00722 2-1024): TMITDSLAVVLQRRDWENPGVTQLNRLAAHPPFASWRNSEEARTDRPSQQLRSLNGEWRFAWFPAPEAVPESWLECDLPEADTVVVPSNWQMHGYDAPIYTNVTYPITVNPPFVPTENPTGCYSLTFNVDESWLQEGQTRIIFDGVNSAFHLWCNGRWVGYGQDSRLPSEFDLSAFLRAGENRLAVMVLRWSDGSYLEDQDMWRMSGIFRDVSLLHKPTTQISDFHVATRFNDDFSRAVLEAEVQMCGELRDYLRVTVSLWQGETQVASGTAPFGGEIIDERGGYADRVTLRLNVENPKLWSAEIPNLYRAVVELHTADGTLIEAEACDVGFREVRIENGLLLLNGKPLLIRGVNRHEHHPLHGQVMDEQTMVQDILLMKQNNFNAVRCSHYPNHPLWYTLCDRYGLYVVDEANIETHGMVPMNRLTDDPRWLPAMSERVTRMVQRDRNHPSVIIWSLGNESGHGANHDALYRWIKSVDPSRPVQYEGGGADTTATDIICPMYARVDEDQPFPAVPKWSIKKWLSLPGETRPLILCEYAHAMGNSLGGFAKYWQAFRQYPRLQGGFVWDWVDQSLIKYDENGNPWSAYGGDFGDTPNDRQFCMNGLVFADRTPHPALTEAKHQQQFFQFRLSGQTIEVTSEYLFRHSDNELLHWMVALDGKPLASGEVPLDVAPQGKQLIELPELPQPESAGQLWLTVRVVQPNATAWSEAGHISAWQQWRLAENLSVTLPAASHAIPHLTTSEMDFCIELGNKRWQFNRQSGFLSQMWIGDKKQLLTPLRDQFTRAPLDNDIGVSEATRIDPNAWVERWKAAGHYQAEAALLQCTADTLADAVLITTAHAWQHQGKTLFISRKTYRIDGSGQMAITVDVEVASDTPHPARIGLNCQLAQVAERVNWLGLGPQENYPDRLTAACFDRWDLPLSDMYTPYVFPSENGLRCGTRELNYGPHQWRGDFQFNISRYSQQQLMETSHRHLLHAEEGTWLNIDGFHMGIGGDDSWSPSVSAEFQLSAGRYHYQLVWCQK

Chain of human Kv1.3 (human) (P22001 whole entry): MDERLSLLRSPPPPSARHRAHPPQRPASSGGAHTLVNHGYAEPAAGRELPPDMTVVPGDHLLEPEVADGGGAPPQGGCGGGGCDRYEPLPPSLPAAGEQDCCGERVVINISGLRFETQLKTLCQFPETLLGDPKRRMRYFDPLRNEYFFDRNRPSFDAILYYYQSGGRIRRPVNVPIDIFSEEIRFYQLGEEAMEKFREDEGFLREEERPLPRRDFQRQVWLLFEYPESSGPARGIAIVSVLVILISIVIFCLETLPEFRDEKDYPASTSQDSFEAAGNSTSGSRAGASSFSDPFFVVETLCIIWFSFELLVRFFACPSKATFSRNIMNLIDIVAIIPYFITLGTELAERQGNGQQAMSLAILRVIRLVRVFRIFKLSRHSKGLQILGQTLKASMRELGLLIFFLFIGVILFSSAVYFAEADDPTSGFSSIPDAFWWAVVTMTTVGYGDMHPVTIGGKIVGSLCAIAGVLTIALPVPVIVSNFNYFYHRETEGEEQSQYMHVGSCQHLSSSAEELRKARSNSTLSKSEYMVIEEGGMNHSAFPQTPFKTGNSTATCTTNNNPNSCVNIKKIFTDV
Chain of human Kv1.1 (human) (Q09470 whole entry): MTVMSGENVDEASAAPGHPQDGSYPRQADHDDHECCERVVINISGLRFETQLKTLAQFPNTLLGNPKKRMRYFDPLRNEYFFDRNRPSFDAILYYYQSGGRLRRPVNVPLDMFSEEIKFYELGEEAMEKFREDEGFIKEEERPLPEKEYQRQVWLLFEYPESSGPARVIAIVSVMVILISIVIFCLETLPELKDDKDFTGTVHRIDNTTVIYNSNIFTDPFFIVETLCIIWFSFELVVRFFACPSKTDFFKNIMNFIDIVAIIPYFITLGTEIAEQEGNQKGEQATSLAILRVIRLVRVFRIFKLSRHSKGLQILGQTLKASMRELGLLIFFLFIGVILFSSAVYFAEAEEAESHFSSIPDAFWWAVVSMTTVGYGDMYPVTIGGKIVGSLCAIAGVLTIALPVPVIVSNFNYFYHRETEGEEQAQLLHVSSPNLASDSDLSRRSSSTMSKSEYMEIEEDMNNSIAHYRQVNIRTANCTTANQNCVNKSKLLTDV

Binder	TRF signal (trypsin [1])	TRF signal (trypsin [2])	TRF signal (trypsin [3])	TRF signal (β-galactosidase)	other results
B1					Kv1.1 IC50, QPatch patch clamp (human Kv1.1 (human)): 2990 nM; Fold difference (Kv1.1 IC50 against Kv1.3 IC50) (human Kv1.3 (human)): > 3500 fold; Kv1.3 IC50, QPatch patch clamp (human Kv1.3 (human)): 0.9 nM
B2	41700	238000	146000		
B3	153000	276000	247000		
B4				523000	
B5				289000	
B6				529000	
B7				258000	
B8				246000	
B9	54800	257000	153000		
B10	46800	289000	205000		
B11	48900	212000	141000		
B12	51100	183000	131000		
B13				501000	
B14	2340	56600	15900		
B15				518000	
B16				476000	
B17				62000	
B18				312000	
B19				531000	
B20	102000	253000	222000		
